Numbering of substitutions follows the chain as printed. Names and notes keep the numbering of the source. Values joined by “and” are separate entries in the source; they are usually repeats but may differ in a detail not shown here. Equal values may be shown once.
B1: 117 (antibody, V domains shown)
VH: EVQLVESGGGLVQPGGSLRLSCAASGFTISSFGIHWVRQAPGKGLEWVAWIAPYGGYTYYADSVKGRFTISADTSKNTAYLQMNSLRAEDTAVYYCARSFFGYFDYWGQGTLVTVSS
VL: DIQMTQSPSSLSASVGDRVTITCRASQDVSNWVAWYQQKPGKAPKLLISYATSLYSGVPSRFSGSGSGTDFTLTISSLQPEDFATYYCQQHSNAPLTFGQGTKVEIKR
notes: Full-length IgG, human kappa
B2: 117_30DE (antibody, V domains shown)
VH: B1 VH with S30D, Y57E
VL: B1 VL
notes: full-length IgG, human kappa
B3: 117_57EE (antibody, V domains shown)
VH: B1 VH with Y57E, T58E
VL: B1 VL
notes: full-length IgG, human kappa
B4: 117 (IgG1) (antibody)
heavy: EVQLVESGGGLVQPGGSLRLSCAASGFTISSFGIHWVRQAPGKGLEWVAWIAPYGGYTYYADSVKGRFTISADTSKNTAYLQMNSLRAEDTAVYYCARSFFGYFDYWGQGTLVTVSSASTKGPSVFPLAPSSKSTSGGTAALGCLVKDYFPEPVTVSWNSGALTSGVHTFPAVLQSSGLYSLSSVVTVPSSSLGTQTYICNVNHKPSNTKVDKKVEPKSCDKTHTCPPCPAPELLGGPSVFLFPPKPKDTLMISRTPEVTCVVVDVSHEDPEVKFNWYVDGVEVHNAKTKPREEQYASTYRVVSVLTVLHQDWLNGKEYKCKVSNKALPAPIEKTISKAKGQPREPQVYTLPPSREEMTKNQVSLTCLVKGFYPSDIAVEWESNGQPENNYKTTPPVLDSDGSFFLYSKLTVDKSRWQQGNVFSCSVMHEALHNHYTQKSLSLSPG
light: DIQMTQSPSSLSASVGDRVTITCRASQDVSNWVAWYQQKPGKAPKLLISYATSLYSGVPSRFSGSGSGTDFTLTISSLQPEDFATYYCQQHSNAPLTFGQGTKVEIKRTVAAPSVFIFPPSDEQLKSGTASVVCLLNNFYPREAKVQWKVDNALQSGNSQESVTEQDSKDSTYSLSSTLTLSKADYEKHKVYACEVTHQGLSSPVTKSFNRGEC
notes: Human IgG1-N297A, kappa
B5: 117 (IgG4) (antibody)
heavy: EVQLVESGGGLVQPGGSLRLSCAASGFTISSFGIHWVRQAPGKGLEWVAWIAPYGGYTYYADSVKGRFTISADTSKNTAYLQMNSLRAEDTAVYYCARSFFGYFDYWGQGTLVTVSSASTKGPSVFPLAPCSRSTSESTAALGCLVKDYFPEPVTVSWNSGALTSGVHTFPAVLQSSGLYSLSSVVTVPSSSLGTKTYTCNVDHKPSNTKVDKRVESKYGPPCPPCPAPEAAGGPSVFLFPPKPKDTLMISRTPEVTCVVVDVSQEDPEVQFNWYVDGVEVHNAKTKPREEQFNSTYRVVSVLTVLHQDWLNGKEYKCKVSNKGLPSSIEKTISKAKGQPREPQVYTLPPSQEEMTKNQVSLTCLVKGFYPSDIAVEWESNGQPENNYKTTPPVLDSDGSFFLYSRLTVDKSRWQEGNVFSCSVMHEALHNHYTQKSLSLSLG
light: B4 light
notes: Human IgG4-S228P/F234A/L235A, kappa
B6: 117_DA57E (IgG4) (antibody, V domains shown)
VH: B1 VH with S30D, S31A, Y57E
VL: B1 VL
notes: Human IgG4-S228P-FALA, kappa
B7: 117_57EE (IgG1) (antibody, V domains shown)
VH: B1 VH with Y57E, T58E
VL: B1 VL
B8: 117_57E (IgG4) (antibody)
heavy: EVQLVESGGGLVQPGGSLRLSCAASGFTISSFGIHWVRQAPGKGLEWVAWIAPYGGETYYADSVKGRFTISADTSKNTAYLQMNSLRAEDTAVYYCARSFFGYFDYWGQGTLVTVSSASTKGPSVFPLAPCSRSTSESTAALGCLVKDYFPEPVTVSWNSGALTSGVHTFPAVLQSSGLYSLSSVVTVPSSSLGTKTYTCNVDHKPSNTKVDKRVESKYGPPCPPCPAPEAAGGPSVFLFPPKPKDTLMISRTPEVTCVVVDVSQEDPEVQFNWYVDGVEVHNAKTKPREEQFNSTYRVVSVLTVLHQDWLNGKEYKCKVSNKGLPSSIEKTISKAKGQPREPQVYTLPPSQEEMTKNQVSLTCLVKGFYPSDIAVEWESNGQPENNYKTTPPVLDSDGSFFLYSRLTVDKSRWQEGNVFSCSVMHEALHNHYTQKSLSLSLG
light: B4 light
notes: Human IgG4-S228P-FALA, kappa
B9: 117_31A (IgG4) (antibody)
heavy: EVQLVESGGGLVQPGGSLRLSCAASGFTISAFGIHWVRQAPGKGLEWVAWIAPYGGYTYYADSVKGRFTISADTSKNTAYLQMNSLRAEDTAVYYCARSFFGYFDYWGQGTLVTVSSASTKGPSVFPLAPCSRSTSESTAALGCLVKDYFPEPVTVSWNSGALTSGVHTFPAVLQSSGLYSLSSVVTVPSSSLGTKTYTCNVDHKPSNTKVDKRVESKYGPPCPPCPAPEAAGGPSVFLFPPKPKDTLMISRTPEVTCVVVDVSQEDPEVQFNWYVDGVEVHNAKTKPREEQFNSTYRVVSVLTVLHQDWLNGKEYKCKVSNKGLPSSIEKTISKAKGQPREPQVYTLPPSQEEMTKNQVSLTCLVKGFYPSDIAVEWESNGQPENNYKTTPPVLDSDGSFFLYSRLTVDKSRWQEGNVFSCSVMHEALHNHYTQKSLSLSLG
light: B4 light
B10: 117_30DA (IgG4) (antibody, V domains shown)
VH: B1 VH with S30D, S31A
VL: B1 VL
notes: Human IgG4-S228P-FALA, kappa
B11: 117_57E (IgG1) (antibody)
heavy: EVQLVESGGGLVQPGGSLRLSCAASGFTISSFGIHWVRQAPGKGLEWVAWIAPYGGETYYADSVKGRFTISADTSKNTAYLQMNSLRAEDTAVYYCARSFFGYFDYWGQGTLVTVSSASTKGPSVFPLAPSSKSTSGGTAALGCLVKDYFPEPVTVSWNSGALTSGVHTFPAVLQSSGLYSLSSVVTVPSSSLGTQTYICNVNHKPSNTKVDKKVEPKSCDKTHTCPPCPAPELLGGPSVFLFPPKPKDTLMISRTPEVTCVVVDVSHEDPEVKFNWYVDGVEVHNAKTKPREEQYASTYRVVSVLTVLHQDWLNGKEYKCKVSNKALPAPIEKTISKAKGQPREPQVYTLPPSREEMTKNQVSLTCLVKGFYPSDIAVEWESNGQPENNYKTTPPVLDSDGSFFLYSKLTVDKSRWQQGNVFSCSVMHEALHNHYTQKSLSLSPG
light: B4 light
B12: 117_30DE (IgG4) (antibody, V domains shown)
VH: B1 VH with S30D, Y57E
VL: B1 VL
notes: Human IgG4-S228P-FALA, kappa
B13: 117_31A (IgG1) (antibody)
heavy: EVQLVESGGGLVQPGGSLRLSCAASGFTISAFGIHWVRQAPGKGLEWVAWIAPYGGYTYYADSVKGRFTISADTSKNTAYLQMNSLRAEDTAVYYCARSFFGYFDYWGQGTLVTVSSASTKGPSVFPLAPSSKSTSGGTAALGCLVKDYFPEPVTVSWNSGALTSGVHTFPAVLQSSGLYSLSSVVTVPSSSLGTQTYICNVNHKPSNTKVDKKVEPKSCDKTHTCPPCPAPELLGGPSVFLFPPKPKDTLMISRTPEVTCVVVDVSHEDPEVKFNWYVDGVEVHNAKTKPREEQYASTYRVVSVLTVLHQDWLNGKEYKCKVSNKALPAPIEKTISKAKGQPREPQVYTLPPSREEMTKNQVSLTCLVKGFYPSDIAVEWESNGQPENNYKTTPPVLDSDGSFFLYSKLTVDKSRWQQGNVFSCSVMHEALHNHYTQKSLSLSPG
light: B4 light
B14: 117_54E (IgG1) (antibody, V domains shown)
VH: B1 VH with Y54E
VL: B1 VL
B15: 117_57D (IgG4) (antibody)
heavy: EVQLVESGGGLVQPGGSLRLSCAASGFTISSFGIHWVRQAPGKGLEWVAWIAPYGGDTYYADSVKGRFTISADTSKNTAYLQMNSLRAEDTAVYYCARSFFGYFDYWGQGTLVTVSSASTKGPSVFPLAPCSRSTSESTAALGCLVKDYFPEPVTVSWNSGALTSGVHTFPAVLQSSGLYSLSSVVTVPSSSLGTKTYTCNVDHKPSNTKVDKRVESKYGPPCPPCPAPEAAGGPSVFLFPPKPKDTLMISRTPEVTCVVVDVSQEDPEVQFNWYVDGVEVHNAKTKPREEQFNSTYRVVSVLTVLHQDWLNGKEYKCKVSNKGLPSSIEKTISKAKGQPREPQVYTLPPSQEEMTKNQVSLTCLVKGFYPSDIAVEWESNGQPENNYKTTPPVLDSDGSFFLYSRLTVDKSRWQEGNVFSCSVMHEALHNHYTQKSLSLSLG
light: B4 light
notes: Human IgG4-S228P-FALA, kappa
B16: 117_57D (IgG1) (antibody)
heavy: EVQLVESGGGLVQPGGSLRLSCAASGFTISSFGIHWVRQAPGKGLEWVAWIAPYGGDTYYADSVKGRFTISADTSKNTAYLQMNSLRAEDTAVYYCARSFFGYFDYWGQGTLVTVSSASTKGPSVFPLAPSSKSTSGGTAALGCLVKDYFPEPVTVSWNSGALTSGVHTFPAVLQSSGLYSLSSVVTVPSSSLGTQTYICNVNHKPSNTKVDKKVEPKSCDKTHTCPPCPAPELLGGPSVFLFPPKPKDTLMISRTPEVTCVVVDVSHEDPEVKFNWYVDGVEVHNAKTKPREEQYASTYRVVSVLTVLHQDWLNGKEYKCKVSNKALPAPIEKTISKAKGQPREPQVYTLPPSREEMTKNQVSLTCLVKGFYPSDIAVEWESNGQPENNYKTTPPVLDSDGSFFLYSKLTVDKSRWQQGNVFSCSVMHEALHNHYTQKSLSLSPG
light: B4 light
B17: 117_30AA (IgG4) (antibody, V domains shown)
VH: B1 VH with S30A, S31A
VL: B1 VL
notes: Human IgG4-S228P-FALA, kappa
B18: 117_DA57D (IgG4) (antibody, V domains shown)
VH: B1 VH with S30D, S31A, Y57D
VL: B1 VL
B19: 117_57DE (antibody, V domains shown)
VH: B1 VH with Y57D, T58E
VL: B1 VL
notes: full-length IgG, human kappa
B20: 117_28D (antibody, V domains shown)
VH: B1 VH with T28D
VL: B1 VL
notes: full-length IgG, human kappa
B21: 117_31A (antibody, V domains shown)
VH: B1 VH with S31A
VL: B1 VL
notes: full-length IgG, human kappa
B22: 117_30A (antibody, V domains shown)
VH: B1 VH with S30A
VL: B1 VL
notes: full-length IgG, human kappa
B23: 117_31D (antibody, V domains shown)
VH: B1 VH with S31D
VL: B1 VL
notes: full-length IgG, human kappa
B24: 117_32D (antibody, V domains shown)
VH: B1 VH with F32D
VL: B1 VL
notes: full-length IgG, human kappa
B25: 117_30D (antibody, V domains shown)
VH: B1 VH with S30D
VL: B1 VL
notes: full-length IgG, human kappa
B26: 117_28A (antibody, V domains shown)
VH: B1 VH with T28A
VL: B1 VL
notes: full-length IgG, human kappa

Each binder was assayed against T1, full-length human CD36-Flag overexpressed on stable F293 cells (human, UniProt P16671 2-472) (assay: cell-based or functional assay).
T1 sequence (P16671 2-472): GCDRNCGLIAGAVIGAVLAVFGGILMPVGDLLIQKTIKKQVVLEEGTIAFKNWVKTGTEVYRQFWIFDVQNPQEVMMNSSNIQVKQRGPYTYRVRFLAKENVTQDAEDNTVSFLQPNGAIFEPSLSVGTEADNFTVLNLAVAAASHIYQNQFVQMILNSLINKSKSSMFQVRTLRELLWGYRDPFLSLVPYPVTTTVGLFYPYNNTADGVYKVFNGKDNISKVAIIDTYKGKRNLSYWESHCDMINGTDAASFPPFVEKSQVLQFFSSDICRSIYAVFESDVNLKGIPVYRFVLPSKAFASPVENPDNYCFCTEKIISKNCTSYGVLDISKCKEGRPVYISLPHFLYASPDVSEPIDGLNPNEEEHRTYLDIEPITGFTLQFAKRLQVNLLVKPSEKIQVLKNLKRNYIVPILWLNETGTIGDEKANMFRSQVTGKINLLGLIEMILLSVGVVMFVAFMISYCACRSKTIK

Row | oxLDL uptake IC50 (nM), F293/hCD36 [nM] | Binder
1 | 0.702 | B1
2 | 0.299 | B2
3 | 0.348 | B3

These binders were tested against T2, Recombinant His-tagged human CD36.ECD protein (Sino Biological) (human, UniProt P16671 30-439) (assay: BLI (Octet), antibody on AHC sensor, His-tagged hCD36.ECD in solution, 1:1 fit).
T2 construct: Bought protein; also called hCD36.ECD; hCD36; not shown: His tag
T2 sequence (P16671 30-439 limits assumed): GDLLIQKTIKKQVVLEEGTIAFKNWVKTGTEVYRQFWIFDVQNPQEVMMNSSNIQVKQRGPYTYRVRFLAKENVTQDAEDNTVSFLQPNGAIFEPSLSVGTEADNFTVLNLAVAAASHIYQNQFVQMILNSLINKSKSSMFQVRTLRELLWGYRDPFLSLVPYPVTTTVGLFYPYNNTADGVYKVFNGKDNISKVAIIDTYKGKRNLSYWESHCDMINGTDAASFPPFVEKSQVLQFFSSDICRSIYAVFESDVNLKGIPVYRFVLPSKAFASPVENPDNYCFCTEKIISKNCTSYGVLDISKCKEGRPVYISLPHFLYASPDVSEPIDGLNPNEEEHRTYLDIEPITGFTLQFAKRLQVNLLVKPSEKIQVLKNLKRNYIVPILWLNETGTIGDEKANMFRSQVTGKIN
Experimental: BLI assay materials and method: Kinetic rate constants, ka and kd, for binding of the anti-CD36 antibodies to human CD36 were measured by Bio-Layer Interferometry (BLI) (ForteBio Octet RED96). […] Rate constants were calculated by curve fitting analyses (1:1 Langmuir model) of binding response with a 2.5-minute association and 5-minute dissociation interaction time.

Row | Kd | koff | kon | Binder
4 | 4.79 nM and 6.72 nM | 0.00213 s⁻¹ and 0.00235 s⁻¹ | 445000 M⁻¹ s⁻¹ and 350000 M⁻¹ s⁻¹ | B4
5 | 6.49 nM | 0.0025 s⁻¹ | 386000 M⁻¹ s⁻¹ | B5
6 | 2.52 nM | 0.000803 s⁻¹ | 319000 M⁻¹ s⁻¹ | B6
7 | 4.27 nM | 0.00155 s⁻¹ | 364000 M⁻¹ s⁻¹ | B7
8 | 5.28 nM | 0.00171 s⁻¹ | 325000 M⁻¹ s⁻¹ | B8
9 | 4.32 nM | 0.00205 s⁻¹ | 475000 M⁻¹ s⁻¹ | B9
10 | 3.91 nM | 0.00133 s⁻¹ | 339000 M⁻¹ s⁻¹ | B10
11 | 4.93 nM | 0.00182 s⁻¹ | 370000 M⁻¹ s⁻¹ | B11
12 | 3.09 nM | 0.000981 s⁻¹ | 317000 M⁻¹ s⁻¹ | B12
13 | 4.05 nM | 0.00182 s⁻¹ | 449000 M⁻¹ s⁻¹ | B13
14 | 4.16 nM | 0.00407 s⁻¹ | 978000 M⁻¹ s⁻¹ | B14
15 | 4.96 nM | 0.00167 s⁻¹ | 336000 M⁻¹ s⁻¹ | B15
16 | 4.69 nM | 0.00175 s⁻¹ | 373000 M⁻¹ s⁻¹ | B16
17 | 5.74 nM | 0.00282 s⁻¹ | 491000 M⁻¹ s⁻¹ | B17
18 | 2.64 nM | 0.000838 s⁻¹ | 317000 M⁻¹ s⁻¹ | B18

What follows are binders tested against T3, mouse CD36-His overexpressed on stable F293 cells (mouse, UniProt Q08857 1-472) (assay: flow cytometry, F293 cells overexpressing mouse CD36).
T3 construct: Gene segment from Sino Biological; also called F293/mCD36; mCD36; not shown: His tag
T3 sequence (Q08857 whole entry): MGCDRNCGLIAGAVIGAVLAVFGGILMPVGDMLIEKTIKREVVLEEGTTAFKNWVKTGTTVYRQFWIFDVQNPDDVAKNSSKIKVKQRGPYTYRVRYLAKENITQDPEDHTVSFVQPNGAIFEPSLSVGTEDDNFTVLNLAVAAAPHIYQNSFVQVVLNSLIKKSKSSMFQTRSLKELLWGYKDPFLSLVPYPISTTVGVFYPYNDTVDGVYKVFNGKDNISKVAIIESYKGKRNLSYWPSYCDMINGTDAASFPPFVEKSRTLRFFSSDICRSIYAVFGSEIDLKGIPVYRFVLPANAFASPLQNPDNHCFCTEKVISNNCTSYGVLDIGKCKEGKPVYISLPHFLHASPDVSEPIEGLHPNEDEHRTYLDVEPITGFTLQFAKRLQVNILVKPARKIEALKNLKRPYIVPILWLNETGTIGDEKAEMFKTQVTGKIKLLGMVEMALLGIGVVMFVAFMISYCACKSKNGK
Source text: (§1) After washing with FACS buffer (2% FBS in PBS), the cells were stained with anti-human IgG-Alexa Fluor 647 and analyzed by Attune NxT Flow Cytometer (Thermo Scientific).

Row | EC50 | Binder
19 | 0.46 µg/mL and 0.361 µg/mL | B1
20 | 0.342 µg/mL | B2
21 | 0.447 µg/mL | B19
22 | 0.319 µg/mL | B3

The binders below were run against T4, rhesus CD36-His overexpressed on stable F293 cells (rhesus, UniProt P16671 2-472 (human entry)) (assay: flow cytometry, F293 cells overexpressing rhesus CD36).
T4 construct: Gene segment from Sino Biological; also called F293/rhesusCD36; not shown: His tag
T4 sequence (P16671 other isoform, or with tags, fused parts or gaps): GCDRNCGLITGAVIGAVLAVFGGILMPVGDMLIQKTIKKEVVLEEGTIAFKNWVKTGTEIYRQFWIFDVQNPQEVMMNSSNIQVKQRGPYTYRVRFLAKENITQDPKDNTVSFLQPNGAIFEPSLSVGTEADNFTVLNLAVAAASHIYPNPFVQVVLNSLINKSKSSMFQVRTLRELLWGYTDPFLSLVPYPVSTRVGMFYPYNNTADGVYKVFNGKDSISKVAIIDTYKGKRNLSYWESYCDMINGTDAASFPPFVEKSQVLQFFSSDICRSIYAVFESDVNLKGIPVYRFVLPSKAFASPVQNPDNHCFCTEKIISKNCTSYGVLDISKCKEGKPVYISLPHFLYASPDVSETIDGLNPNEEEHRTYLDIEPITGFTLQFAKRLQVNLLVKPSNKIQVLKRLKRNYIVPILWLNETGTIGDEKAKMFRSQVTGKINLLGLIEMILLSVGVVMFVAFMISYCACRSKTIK
Source text: as §1

Row | EC50 | Binder
23 | 0.886 µg/mL and 0.582 µg/mL | B1
24 | 0.403 µg/mL | B2
25 | 0.529 µg/mL | B19
26 | 0.407 µg/mL | B3

Each binder was assayed against T1, full-length human CD36-Flag … (assay: flow cytometry, F293 cells overexpressing human CD36).
Source text: as §1

Row | EC50 | Binder
27 | 0.18 µg/mL and 0.123 µg/mL | B1
28 | 0.107 µg/mL | B2
29 | 0.129 µg/mL | B19
30 | 0.093 µg/mL | B3

Each binder was assayed against T2, Recombinant His-tagged human CD36.ECD … (assay: ELISA, coated human CD36.ECD (FIG. 2B)).
Experimental: ELISA materials and methods: Recombinant His-tagged human CD36.ECD protein or His-tagged mouse CD36.ECD protein (both from Sino Biological) was immobilized on 96 well microtiter plate at a concentration of 1 μg/mL in Coating Solution (SeraCare) overnight at 4° C. The wells were washed with wash solution (0.05% Tween20 in PBS) and blocked with 1% BSA in PBS. Serial dilutions of anti-CD36 antibodies were added to wells. After incubation at 37° C. for 1 h, the wells were washed with wash solution. Peroxidase-conjugated Goat anti-human kappa Light chain antibody (Sigma) was applied to each well at 37° C. for 1 h incubation. After washing, the wells were developed with TMB substrate for 5-10 min at room temperature and then stopped with 1 N HCl. Thereafter absorbance was measured at 450 nm and 650 nm. EC50 values were calculated through GraphPad Prism7.
The competitor anti-CD36 antibody ONA, which is derived from clone “ONA-0-v1” as disclosed in WO2021176424A1 in hIgG4-S228P-FALA format.

Row | EC50 [nM] | Binder
31 | 0.0735 | B20
32 | 0.0991 | B21
33 | 0.0964 | B22
34 | 0.0375 | B23
35 | 0.0276 | B24
36 | 0.141 | B25
37 | 0.129 | B26
